Results: patent US20250059274A1, “ANTI-FRa ANTIBODY, AND ANTIBODY-DRUG CONJUGATE AND USE THEREOF” (Bio-Thera Solutions, Ltd., priority 2021, published 2025)
Read-outs that look alike come from different tables or passages of the source.

Assays:
Mouse FOLR1 = Mouse FOLR1 (Mus musculus, UniProt P35846); assay: ELISA species specificity of antibodies; type: binding; conditions: coated antigen mouse FOLR1
Experimental: (§1) Each antigen was diluted to 1 μg/mL with PBS and added to a microplate (manufacturer: Corning, Catalog No.: 42592) in a volume of 100 μL per well, and the microplate was coated overnight in a refrigerator (2-8° C.). The coating solution was discarded, and 200 μL of a blocking solution (containing 5% skimmed milk powder, prepared from PBS) was added. The microplate was left to stand in an electric thermostatic incubator at 37° C. for 2 h. The blocking solution was discarded, and the microplate was washed 3 times with 0.05% PBST. Antibody dilutions at different concentrations (at an initial concentration of 6 μg/mL, 3-fold dilution, 8 concentration gradients in total, diluted with PBS) were added at 100 μL per well. The microplate was left to stand in the electric thermostatic incubator at 37° C. for 2 h. The antibody dilutions were discarded, and the microplate was washed 8 times with 0.05% PBST and patted dry. Anti-Human Kappa Light Chains (Bound and Free) peroxidase antibody Produced in goat (manufacturer: sigma, Catalog No.: A7164-1ML) diluted in a 1:10000 ratio was added at 100 µL/well. The microplate was left to stand in the electric thermostatic incubator at 37° C. for 1 h. […] The microplate was read on SpectraMax Plus Absorbance Microplate Reader with an absorption light wavelength of 450 nm.

Rat FOLR1 = Rat FOLR1 (Rattus norvegicus, UniProt Q9JL02); assay: ELISA species specificity of antibodies; type: binding; conditions: coated antigen rat FOLR1
Chain of Rat FOLR1 (Q9JL02 20-255): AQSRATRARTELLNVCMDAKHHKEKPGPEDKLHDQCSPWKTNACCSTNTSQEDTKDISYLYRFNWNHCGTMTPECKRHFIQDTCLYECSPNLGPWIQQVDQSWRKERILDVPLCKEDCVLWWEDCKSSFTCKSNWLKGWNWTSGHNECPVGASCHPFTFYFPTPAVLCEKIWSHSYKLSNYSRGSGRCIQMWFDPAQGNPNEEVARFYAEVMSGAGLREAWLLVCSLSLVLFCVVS
Experimental: as §1

[1] = Exatecan in plasma, 0.25 mg/kg iv infusion 30 min
Experimental: 24 common cynomolgus monkeys aged 3-5 years (half male and half female) were adopted and randomly divided into 4 groups, and each group consisted of 3 female animals and 3 male animals. […] Blood samples were collected until 504 hours after the end of the administration. The major pharmacokinetic parameters, i.e., AUC(0-t), AUC(0-∞), T1/2, Cmax, Tmax, CL, MRT, etc., were calculated from the plasma concentration data with a non-compartmental model using Phoenix WinNonlin® 7.0 software.

[2] = target: T1, Mouse FOLR1 (manufacturer: Acro, Catalog No.: F01-M5225) (mouse, UniProt P35846 25-232); assay: ELISA, antigen coated at 1 µg/mL
T1 construct: Bought reagent
T1 sequence (P35846 25-232 limits assumed): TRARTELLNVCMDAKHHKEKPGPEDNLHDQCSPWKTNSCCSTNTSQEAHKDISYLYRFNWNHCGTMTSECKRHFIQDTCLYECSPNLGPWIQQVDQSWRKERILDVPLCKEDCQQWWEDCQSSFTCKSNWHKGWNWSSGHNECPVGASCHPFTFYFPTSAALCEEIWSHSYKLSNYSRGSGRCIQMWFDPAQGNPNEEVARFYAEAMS
Experimental: (§2) Each antigen was diluted to 1 μg/mL with PBS and added to a microplate (manufacturer: Corning, Catalog No.: 42592) in a volume of 100 μL per well, and the microplate was coated overnight in a refrigerator (2-8° C.). The coating solution was discarded, and 200 μL of a blocking solution (containing 5% skimmed milk powder, prepared from PBS) was added. The microplate was left to stand in an electric thermostatic incubator at 37° C. for 2 h. The blocking solution was discarded, and the microplate was washed 3 times with 0.05% PBST. Antibody dilutions at different concentrations (at an initial concentration of 6 μg/mL, 3-fold dilution, 8 concentration gradients in total, diluted with PBS) were added at 100 μL per well. The microplate was left to stand in the electric thermostatic incubator at 37° C. for 2 h. The antibody dilutions were discarded, and the microplate was washed 8 times with 0.05% PBST and patted dry. Anti-Human Kappa Light Chains (Bound and Free) peroxidase antibody Produced in goat (manufacturer: sigma, Catalog No.: A7164-1ML) diluted in a 1:10000 ratio was added at 100 µL/well. The microplate was left to stand in the electric thermostatic incubator at 37° C. for 1 h. The antibody dilutions were discarded, and the microplate was washed 8 times with 0.05% PBST and patted dry. Single-component TMB substrate solution I (manufacturer: Huzhou InnoReagents Co., Ltd.; Catalog No.: TMB-S-001) was added at 100 μL/well, and the microplate was left to stand in the electric thermostatic incubator at 37° C. for 10 min in the dark. 0.1 M H₂SO₄ was added at 100 μL/well to terminate the reaction.

[3] = target: T2, Rat FOLR1 (manufacturer: sino Biological, Catalog No.: 81073-R08NO0507) (rat, UniProt G3V8M6 25-232); assay: ELISA, antigen coated at 1 µg/mL
T2 construct: Bought reagent
T2 sequence (G3V8M6 entry or part of it limits assumed): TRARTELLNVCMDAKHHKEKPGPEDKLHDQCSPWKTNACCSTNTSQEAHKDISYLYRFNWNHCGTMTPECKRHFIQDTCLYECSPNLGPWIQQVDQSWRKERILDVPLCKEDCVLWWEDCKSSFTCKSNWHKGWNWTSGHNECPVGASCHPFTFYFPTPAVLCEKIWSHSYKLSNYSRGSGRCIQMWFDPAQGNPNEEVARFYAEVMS
Experimental: as §2

[4] = target: T3, antigen FRα-His (human FRα extracellular domain with C-terminal 8×HIS tag) (human, UniProt P15328 25-233); assay: ELISA, antigen coated at 1 µg/mL, antibody titrated
T3 construct: The entry still carries the N-terminal signal peptide; Expressed in CHO-K1 cells; also called FOLR1
T3 sequence (P15328 other isoform, or with tags, fused parts or gaps limits assumed): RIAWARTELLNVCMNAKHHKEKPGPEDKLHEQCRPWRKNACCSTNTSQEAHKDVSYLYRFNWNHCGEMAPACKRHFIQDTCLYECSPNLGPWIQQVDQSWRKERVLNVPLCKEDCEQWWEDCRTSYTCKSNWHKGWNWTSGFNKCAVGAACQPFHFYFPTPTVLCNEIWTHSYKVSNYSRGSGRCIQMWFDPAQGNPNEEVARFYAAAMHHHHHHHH
Experimental: as §2

[5] = target: T4, Cynomolgus monkey FOLR1 (manufacturer: Acro, Catalog No.: F01-C52H8) (cynomolgus monkey, UniProt A0A2K5U044 25-233); assay: as above
T4 construct: Bought reagent
T4 sequence (A0A2K5U044 entry or part of it): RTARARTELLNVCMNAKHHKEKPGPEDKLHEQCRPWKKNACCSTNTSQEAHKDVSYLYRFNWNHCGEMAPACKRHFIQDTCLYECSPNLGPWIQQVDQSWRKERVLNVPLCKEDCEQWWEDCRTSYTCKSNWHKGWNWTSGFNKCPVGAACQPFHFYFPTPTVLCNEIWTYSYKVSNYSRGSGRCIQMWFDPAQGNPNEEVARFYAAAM
Experimental: as §2

[6] = target: T5, FOLR2 (purchased from Acro, Catalog No. FO2-H5223) (UniProt P14207 17-228); assay: SPR (Biacore T200), antibody captured on Protein A chip, antigen as analyte
T5 construct: Bought reagent; also called folate receptor β
T5 sequence (P14207 17-228 limits assumed): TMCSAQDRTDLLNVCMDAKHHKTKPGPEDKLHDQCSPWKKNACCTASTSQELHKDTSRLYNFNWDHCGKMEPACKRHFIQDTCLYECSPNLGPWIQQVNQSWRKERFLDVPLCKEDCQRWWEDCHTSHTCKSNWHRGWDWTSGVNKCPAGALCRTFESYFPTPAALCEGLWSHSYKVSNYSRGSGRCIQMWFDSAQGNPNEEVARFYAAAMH
Experimental: (§3) A Protein A chip was used for the assay.
(§4) Experiment results were analyzed using data analysis software Evaluation Software 3.1. The sensing signals acquired from the experimental flow channels for the samples were subjected to double subtraction (minus values of reference flow channels and blank control), and the fitting was performed using a “1:1” kinetic model to obtain the kinetic parameters (Ka: association rate; Kd: dissociation rate; KD: equilibrium dissociation constant) for the binding of each sample to the antigens.

[7] = target: T6, FOLR3 (purchased from R&D, Catalog No. 5319-FR-050) (UniProt P41439 23-245, limits assumed); assay: as above
T6 construct: Bought reagent; also called folate receptor γ
T6 sequence (P41439 23-245 limits assumed): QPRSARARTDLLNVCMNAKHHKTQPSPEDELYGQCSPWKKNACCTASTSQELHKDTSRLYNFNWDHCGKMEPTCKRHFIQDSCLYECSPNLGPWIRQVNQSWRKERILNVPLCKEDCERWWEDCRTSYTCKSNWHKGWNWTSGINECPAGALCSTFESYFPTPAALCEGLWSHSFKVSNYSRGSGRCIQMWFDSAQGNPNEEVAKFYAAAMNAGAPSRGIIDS
Experimental: as §3, §4

[8] = target: T3, antigen FRα-His (human FRα …); assay: SPR (Biacore T200), antibody captured on Protein A chip, antigen as analyte, 1:1 model
Experimental: as §3, §4

[9] = target: T7, folate receptor α (FRα) on FRα-positive cells (JEG-3, MCF-7) (UniProt P15328 25-234, limits assumed); assay: flow cytometry on JEG-3 cells
T7 construct: whole, on cells; also called JEG-3 cells; JEG3 cells
T7 sequence (P15328 25-234 limits assumed): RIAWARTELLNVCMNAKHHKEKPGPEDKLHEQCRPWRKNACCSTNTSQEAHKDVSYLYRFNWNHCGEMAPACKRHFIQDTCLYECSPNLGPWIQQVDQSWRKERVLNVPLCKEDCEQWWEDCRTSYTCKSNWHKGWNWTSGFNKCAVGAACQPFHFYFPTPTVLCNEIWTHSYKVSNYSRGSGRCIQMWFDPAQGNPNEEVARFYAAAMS

[10] = target: T3, antigen FRα-His (human FRα …); assay: SPR (Biacore T200), drug captured on Protein A chip, FRα-His as analyte, 1:1 model
Experimental: as §3, §4

[11] = target: T3, antigen FRα-His (human FRα …); assay: SPR (Biacore T200), antibody captured on Protein A chip, antigen as analyte, 1:1 model; Table 7 experiment (antigen specificity, FOLR1/FOLR2/FOLR3)
Experimental: as §3, §4

Chain of Mouse FOLR1 (P35846 25-232): as the sequence (P35846 25-232 limits assumed) above

huMOV19: control antibody huMOV19, heavy chain SEQ ID NO: 34, light chain SEQ ID NO: 35
EC50 (Mouse FOLR1): — (“—” indicates no binding) | EC50 (Rat FOLR1): — (“—” indicates no binding)

(1S,9S)-1-amino-9-ethyl-5-fluoro-9-hydroxy-4-methyl-1,2,3,9,12,15-hexahydro-10H,13H-benzo[3′,4′:6,7]indoline[1,2-b]quinoline-10,13-dione methanesulfonate [Exatecan Mesylate]
AUC(0-t) ([1]; female): 155.05 ng·h/mL | Cmax ([1]; female): 237.567 ng/mL | Tmax ([1]; female): 30 min | AUC(0-t) ([1]; male): 231.77 ng·h/mL | Cmax ([1]; male): 349.808 ng/mL | Tmax ([1]; male): 30 min

B1: control antibody huMOV19 (antibody, human IgG1, kappa, V domains shown)
VH: QVQLVQSGAEVVKPGASVKISCKASGYTFTGYFMNWVKQSPGQSLEWIGRIHPYDGDTFYNQKFQGKATLTVDKSSNTAHMELLSLTSEDFAVYYCTRYDGSRAMDYWGQGTTVTVSS
VL: DIVLTQSPLSLAVSLGQPAIISCKASQSVSFAGTSLMHWYHQKPGQQPRLLIYRASNLEAGVPDRFSGSGSKTDFTLTISPVEAEDAATYYCQQSREYPYTFGGGTKLEIKR
binding result [2]: no binding (tested: antibody up to 6 µg/mL) | binding result [3]: no binding (tested: antibody up to 6 µg/mL) | EC50 [4]: 0.09 µg/mL | EC50 [5]: 0.087 µg/mL | binding result [6]: no binding (tested: antigen up to 100 nM) | binding result [7]: no binding (tested: antigen up to 100 nM) | Kd [8]: 0.468 nM

B2: Antibody 1 (humanized anti-FRα antibody) (antibody, human IgG1, kappa, V domains shown)
VH: QVQLVQSGVEVKKPGASVKVSCKASGYSFTGYFMNWVRQAPGQGLEWIGRIHPYDGDTFYNQNFKDKATLTVDKSTTTAYMELKSLQFDDTAVYYCTRYDGSRAMDYWGQGTTVTVSS
VL: EIVLTQSPATLSLSPGERATLSCKASQSVSFAGTSLMHWYQQKPGQAPRLLIYRASNLEAGVPARFSGSGSKTDFTLTISSLEPEDFAVYYCQQSREYPYTFGGGTKVEIKR
notes: also called anti-FRα antibody No. 1
EC50 [9]: 1.41 nM | binding result [2]: no binding (tested: antibody up to 6 µg/mL) | binding result [3]: no binding (tested: antibody up to 6 µg/mL) | EC50 [4]: 0.069 µg/mL | EC50 [5]: 0.066 µg/mL | binding result [6]: no binding (tested: antigen up to 100 nM) | binding result [7]: no binding (tested: antigen up to 100 nM) | Kd [10]: 0.287 nM | koff [10]: 0.000293 s⁻¹ | kon [10]: 1.02e+06 M⁻¹ s⁻¹ | Kd [11]: 0.703 nM
